Assay results published in the supplement of paper PMC7125110.
± gives the standard error. For some of these results: Variants at the floor of the assay were thinned out.

B1: glmS ribozyme (parent)
chain: AUAAAAGCGCCAGAACUACAGAAAUGUAGUUGACGAGGAGGAGGUUUAUCGAAUUUUCGGCGGAUGCCUCCAAA

What was measured:
Conditions in all cases: with glucosamine-6-phosphate
glucosamine-6-phosphate [1] = variants of: B1; experiment: kcat; higher = faster cleavage; RNA array
In short: (§1)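 Tiles of sequenced MiSeq chips were imaged over ~14 h at 37 °C. On them, barcoded ribozyme variants had been transcribed in situ by E. coli RNA polymerase and were tracked via a hybridised Cy3 probe while glucosamine-6-phosphate (40 μM to 10 mM) in HEPES/KCl/Mg(OAc)2 buffer flowed in. Per-tile medians, normalised to baseline and to non-cleaving reference variants, were fit to one- or two-exponential decays for kobs, and weighted Michaelis–Menten fits gave kcat and KM.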

glucosamine-6-phosphate [2] = variants of: B1; experiment: self-cleavage kobs at 160 uM GlcN6P; higher = faster cleavage; RNA array
In short: as §1

glucosamine-6-phosphate [3] = variants of: B1; experiment: KM; higher = weaker cofactor use; RNA array
In short: as §1

glucosamine-6-phosphate [4] = variants of: B1; experiment: self-cleavage kobs at 640 uM GlcN6P; higher = faster cleavage; RNA array
In short: as §1

glucosamine-6-phosphate [5] = variants of: B1; experiment: self-cleavage kobs at 2500 uM GlcN6P; higher = faster cleavage; RNA array
In short: as §1

glucosamine-6-phosphate [6] = variants of: B1; experiment: self-cleavage kobs at 10000 uM GlcN6P; higher = faster cleavage; RNA array
In short: as §1

glucosamine-6-phosphate [7] = variants of: B1; experiment: self-cleavage kobs at 40 uM GlcN6P; higher = faster cleavage; RNA array
In short: as §1

| Variant | kcat (glucosamine-6-phosphate [1]) [s⁻¹] | self-cleavage kobs at 160 uM GlcN6P (glucosamine-6-phosphate [2]) [s⁻¹] | KM (glucosamine-6-phosphate [3]) [µM] | self-cleavage kobs at 640 uM GlcN6P (glucosamine-6-phosphate [4]) [s⁻¹] | self-cleavage kobs at 2500 uM GlcN6P (glucosamine-6-phosphate [5]) [s⁻¹] | self-cleavage kobs at 10000 uM GlcN6P (glucosamine-6-phosphate [6]) [s⁻¹] | self-cleavage kobs at 40 uM GlcN6P (glucosamine-6-phosphate [7]) [s⁻¹] |
| --- | --- | --- | --- | --- | --- | --- | --- |
| C8U C11U C34G A36U | 1.07e-05 ± 9.9e-07 | < 1e-05 | – | – | – | – | – |
| A48U U54A | 0.000682 ± 2.5e-05 | 3.6e-05 ± 1.3e-05 | 3130 ± 210 | 0.000113 ± 2.8e-05 | 0.00029 ± 7.8e-05 | 0.000524 ± 7.9e-05 | – |
| U30A | 0.0142 ± 0.0014 | 0.000758 ± 6.8e-05 | 2550 ± 310 | 0.00244 ± 0.00012 | 0.00727 ± 0.00029 | 0.0114 ± 0.00039 | 0.000227 ± 5e-06 |
| G13U C58G | 0.000545 ± 0.00027 | – | – | 9.89e-05 ± 1.6e-05 | 0.000127 ± 2e-05 | 0.000381 ± 3.9e-05 | – |
| A39U A48G | 0.000105 ± 2.3e-05 | < 1e-05 | – | – | 6.61e-05 ± 1.5e-05 | 8.13e-05 ± 1.5e-05 | < 1e-05 |
| A12C G41A | 0.00163 ± 0.00065 | 0.000107 ± 1.7e-05 | – | 0.000353 ± 3.5e-05 | 0.00105 ± 0.00012 | 0.00136 ± 0.00017 | 7.57e-05 ± 9.1e-06 |
| A14G U49A | 3.99e-05 ± 1e-06 | – | 773 ± 130 | – | – | 3.67e-05 ± 1.2e-05 | – |
| A33U U69C | 7.22e-05 ± 1.2e-06 | – | 1080 ± 92 | – | 5.12e-05 ± 1.2e-05 | 6.49e-05 ± 9.5e-06 | – |
| U65A C67A | 9.68e-05 ± 1.3e-05 | 9.4e-05 ± 8.1e-06 | – | 8.78e-05 ± 7.6e-06 | – | – | 5.89e-05 ± 6.3e-06 |
| A42U U55G | 0.000182 ± 1.6e-05 | 5.02e-05 ± 1.6e-05 | 577 ± 150 | 8.8e-05 ± 1.4e-05 | 0.000164 ± 2.3e-05 | 0.000167 ± 2.3e-05 | – |
| U45G U65A | 0.0042 ± 0.00043 | 0.000296 ± 5.3e-05 | 1990 ± 290 | 0.001 ± 0.00012 | 0.00264 ± 0.0004 | 0.00326 ± 0.00059 | 8.89e-05 ± 2.1e-05 |
| C16A G66U | 0.000122 ± 3.2e-05 | – | 8450 ± 4000 | – | 2.61e-05 ± 1.2e-05 | 6.63e-05 ± 1.5e-05 | – |
| U31A A39U | 0.0125 ± 0.0029 | 0.000508 ± 8.4e-05 | 3370 ± 1000 | 0.00196 ± 0.00029 | 0.00802 ± 0.0015 | 0.00871 ± 0.0014 | 0.000161 ± 2.9e-05 |
| C16G U54G | 0.00297 ± 0.00074 | 0.000312 ± 6.7e-05 | 1080 ± 460 | 0.00211 ± 0.0008 | 0.00175 ± 0.0004 | 0.00291 ± 0.00046 | 0.000177 ± 3.8e-05 |
| U45G C58A | 0.000297 ± 2.9e-05 | – | 3170 ± 620 | 4.61e-05 ± 9.8e-06 | 0.000147 ± 2.3e-05 | 0.00022 ± 2.6e-05 | – |
| C16U G32A A33G C58U C70G | 3.69e-05 ± 8.5e-06 | – | – | – | – | – | – |
| G29C C67A C71U | 0.0001 ± 1.5e-05 | – | – | 0.000116 ± 2.2e-05 | 7.49e-05 ± 1.9e-05 | 0.000106 ± 1.9e-05 | – |
| G40A A42G | 0.00697 ± 0.0023 | 0.00046 ± 9.7e-05 | 1900 ± 820 | 0.00157 ± 0.00024 | 0.00363 ± 0.00075 | 0.00783 ± 0.0018 | 0.000182 ± 2.4e-05 |
| A6U A52G | < 1e-05 | < 1e-05 | – | < 1e-05 | – | – | – |
| A52G C67A | 0.000584 ± 5.9e-05 | 7.46e-05 ± 2e-05 | 1300 ± 300 | 0.000199 ± 3.2e-05 | 0.000301 ± 8.4e-05 | 0.000533 ± 5.6e-05 | – |
| A15G C16G | 0.00525 ± 0.001 | 0.000213 ± 6.8e-05 | 2660 ± 820 | 0.0011 ± 0.00023 | 0.00326 ± 0.00063 | 0.00391 ± 0.00059 | 9.12e-05 ± 2.2e-05 |
| A42U C71U | 0.000154 ± 2e-05 | – | 1320 ± 400 | 4.75e-05 ± 6.4e-06 | 0.000122 ± 1.6e-05 | 0.000129 ± 1.4e-05 | < 1e-05 |
| A42G C58A | 0.00048 ± 3.7e-05 | – | 2480 ± 390 | 9.53e-05 ± 3.4e-05 | 0.000279 ± 0.00013 | 0.000379 ± 9.4e-05 | – |
| U45G C71U | 0.00857 ± 0.0011 | 0.000517 ± 8.8e-05 | 2380 ± 450 | 0.00152 ± 0.00031 | 0.00519 ± 0.00062 | 0.00653 ± 0.0008 | 0.000147 ± 1.7e-05 |
| U2A G29U | 0.00852 ± 0.0033 | 0.000569 ± 0.00018 | – | 0.00137 ± 0.00032 | – | 0.00749 ± 0.0017 | 0.000181 ± 3.8e-05 |
| G29U G37C | 1.83e-05 ± 2.2e-06 | – | – | – | – | – | – |
| U30A G40U | 0.000556 ± 6.4e-05 | – | 2160 ± 580 | 0.000117 ± 3e-05 | 0.000367 ± 9e-05 | 0.000446 ± 6.3e-05 | – |
| A12G A64C | < 1e-05 | – | – | – | – | – | < 1e-05 |
| A53U U56A | 0.00699 ± 0.0012 | 0.000573 ± 8e-05 | 1820 ± 450 | 0.00169 ± 0.0002 | 0.00313 ± 0.00052 | 0.00667 ± 0.00065 | 0.000172 ± 2.1e-05 |
| A33U A39C | 1.74e-05 ± 2.5e-06 | – | 3650 ± 1600 | – | – | – | – |
